Where no end group is shown, it is not given here. [ ]: non-standard residue; d: D form. pGlu = O=C1CC[C@@H](C(=O)O)N1
B1: monoclonal antibody 5C9 (antibody, V domains shown)
VH: QIQLQQSGPELVKPGAAVKISCKASGYTFTDYYLNWVKQKPGQGLEWIGWIYPGSGNVKYNEKFKGKATLTADTSSNTAHMQLSSLTSEDTAVYFCTREGLIVYWGQGTLVTVSA
VL: DVVLTQTPFTLSVTIGQPASISCKSSQSLLHSNGESYLNWLFQRPGQSPKRLIYAVSKLDSGVPDRFTGSGSGTDFTLKISRVEAEDLGVYYCVQGTHFPFTFGGGTKLEIK
B2: monoclonal antibody 2E8 (antibody, V domains shown)
VH: QIQLQQSGPDLVKPGASVKISCKASGYTFTDYYINWVKQKPGQGLEWIGWLNPGSGNTKYNEKFKGKATMTVDTTSSTVYMQLSSLTSEDSAVYFCTREGPIDYWGRGTSVTVSS
VL: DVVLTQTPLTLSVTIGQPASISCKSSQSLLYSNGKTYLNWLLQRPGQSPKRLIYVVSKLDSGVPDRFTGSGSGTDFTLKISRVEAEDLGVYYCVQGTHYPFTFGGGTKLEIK

Legend:
[1] = target: T1, pyroglutamated human Aβ3-11 with the addition of a C-terminal cysteine residue, pE-FRHDSGYE-C (not fully specified); experiment: Biacore SPR; KD1 (first binding step)
T1 peptide: [pGlu]FRHDSGYEC

[2] = target: T1, pyroglutamated human Aβ3-11 with the …; experiment: Biacore SPR; overall KD

Row | Binder | Kd [1] | Kd [2]
1 | B1 | 0.116 nM | 8.2 nM
2 | B2 | 3.46 nM | 64 nM

Reference: patent US20170022268A1 (published 2017)
